The numbers were not newly measured in US7951914B2, “Genetically modified cyclic-nucleotide controlled ion channels” (Forschungszentrum Julich GmbH, priority 2001, dated 2011), which cites them from elsewhere.

This data set addresses T1, CNG channels comprising the α3 subunits from the epithelium of the nose (Bos taurus, UniProt Q03041).
T1 sequence (Q03041 1-663): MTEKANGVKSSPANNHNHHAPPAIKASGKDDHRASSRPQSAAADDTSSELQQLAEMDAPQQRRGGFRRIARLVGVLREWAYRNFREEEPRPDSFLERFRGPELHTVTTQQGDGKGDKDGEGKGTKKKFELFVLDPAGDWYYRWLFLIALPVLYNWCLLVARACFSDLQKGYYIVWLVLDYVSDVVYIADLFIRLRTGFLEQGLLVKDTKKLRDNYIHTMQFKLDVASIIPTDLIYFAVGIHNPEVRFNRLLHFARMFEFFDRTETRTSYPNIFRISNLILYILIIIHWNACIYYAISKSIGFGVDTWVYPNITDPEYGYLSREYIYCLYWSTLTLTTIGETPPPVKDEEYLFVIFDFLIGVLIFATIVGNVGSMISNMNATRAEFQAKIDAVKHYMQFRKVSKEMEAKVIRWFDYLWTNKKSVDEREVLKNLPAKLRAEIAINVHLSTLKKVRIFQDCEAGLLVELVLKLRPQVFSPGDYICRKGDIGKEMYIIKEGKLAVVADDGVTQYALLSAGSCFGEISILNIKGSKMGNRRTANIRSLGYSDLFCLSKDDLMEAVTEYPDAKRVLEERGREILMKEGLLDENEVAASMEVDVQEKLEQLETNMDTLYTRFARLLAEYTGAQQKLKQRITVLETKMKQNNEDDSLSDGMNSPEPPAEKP
The settings on record: Dhallan 1990; Ludwig 1990; cited from earlier work.

B1: CNG channels comprising the α3 subunits: prior-art CNG channels of α3 subunits from the epithelium of the nose (protein, UniProt Q16280 1-664, looked up)
Cyclic nucleotide-gated …: MTEKTNGVKSSPANNHNHHAPPAIKANGKDDHRTSSRPHSAADDDTSSELQRLADVDAPQQGRSGFRRIVRLVGIIREWANKNFREEEPRPDSFLERFRGPELQTVTTQEGDGKGDKDGEDKGTKKKFELFVLDPAGDWYYCWLFVIAMPVLYNWCLLVARACFSDLQKGYYLVWLVLDYVSDVVYIADLFIRLRTGFLEQGLLVKDTKKLRDNYIHTLQFKLDVASIIPTDLIYFAVDIHSPEVRFNRLLHFARMFEFFDRTETRTNYPNIFRISNLVLYILVIIHWNACIYYAISKSIGFGVDTWVYPNITDPEYGYLAREYIYCLYWSTLTLTTIGETPPPVKDEEYLFVIFDFLIGVLIFATIVGNVGSMISNMNATRAEFQAKIDAVKHYMQFRKVSKGMEAKVIRWFDYLWTNKKTVDEREILKNLPAKLRAEIAINVHLSTLKKVRIFHDCEAGLLVELVLKLRPQVFSPGDYICRKGDIGKEMYIIKEGKLAVVADDGVTQYALLSAGSCFGEISILNIKGSKMGNRRTANIRSLGYSDLFCLSKDDLMEAVTEYPDAKKVLEERGREILMKEGLLDENEVATSMEVDVQEKLGQLETNMETLYTRFGRLLAEYTGAQQKLKQRITVLETKMKQNNEDDYLSDGMNSPELAAADEP
For B1, the “cGMP concentration that activates the channels” value was 2 µM.
